Source: US20250221953A1 (The University of Chicago, priority 2022, published 2025)

Test system: Jurkat T cells
Format: cell-based, human
Conditions: IL-2 production level in treated group compared to control group; 48 hours treatment, then anti-CD3/anti-CD28 12 hours
Source text: Two preliminary screens were designed and performed.
To construct “blood chemical compound library for cell-based screening purposes, components such as antibodies that are difficult to distinguish due to a wide variety, and some supplements that only function at a whole organism level including fish oils and herbs were excluded. Physiological ranges of serum levels of individual blood chemicals are available in the human metabolome database (https://hmdb.ca/) and applied in the experimental design. For first screen 1a, Jurkat T cells were treated with blood chemical library for 48 hours and then activated with 2.5 μg/mL anti-CD3 and 0.5 μg/mL anti-CD28 antibodies for another 12 hours, followed by measurement of IL-2 level in medium supernatant using ELISA kit (Biolegend). For first screen 1b, 1×10^5 PD-1^+ Jurkat T cells were co-cultured with 2×10^4 H596 (PD-L1^+) cells in a well of 96-well plate for 60 hours, and then activated with 2.5 μg/mL anti-CD3 and 0.5 μg/mL anti-CD28 antibodies for another 12 hours, followed by measurement of IL-2 level in medium supernatant using ELISA kit. Please also refer to Resources Table and Table 1-2 for more details.

B1: LIPASE FROM PORCINE PANCREAS (protein, UniProt P00591 1-450, looked up)
Pancreatic triacylglycerol …: SEVCFPRLGCFSDDAPWAGIVQRPLKILPWSPKDVDTRFLLYTNQNQNNYQELVADPSTITNSNFRMDRKTRFIIHGFIDKGEEDWLSNICKNLFKVESVNCICVDWKGGSRTGYTQASQNIRIVGAEVAYFVEVLKSSLGYSPSNVHVIGHSLGSHAAGEAGRRTNGTIERITGLDPAEPCFQGTPELVRLDPSDAKFVDVIHTDAAPIIPNLGFGMSQTVGHLDFFPNGGKQMPGCQKNILSQIVDIDGIWEGTRDFVACNHLRSYKYYADSILNPDGFAGFPCDSYNVFTANKCFPCPSEGCPQMGHYADRFPGKTNGVSQVFYLNTGDASNFARWRYKVSVTLSGKKVTGHILVSLFGNEGNSRQYEIYKGTLQPDNTHSDEFDSDVEVGDLQKVKFIWYNNNVINPTLPRVGASKITVERNDGKVYDFCSQETVREEVLLTLNPC
  Relative changed percentage (%): −9.403%
